Results from PMC8205236, “Quantitative Profiling of WNT-3A Binding to All Human Frizzled Paralogues in HEK293 Cells by NanoBiT/BRET Assessments” (ACS Pharmacology & Translational Science, 2021).

T1: HiBiT-tagged human FZD4 (human, UniProt Q9ULV1 37-537)
T1 construct: the receptor's own signal peptide is probably replaced; also called HiBiT-FZD4; WT FZD4; source: HEK293A, transiently transfected, on live cells; not shown: HiBiT, N-terminal, kept
T1 sequence (looked up): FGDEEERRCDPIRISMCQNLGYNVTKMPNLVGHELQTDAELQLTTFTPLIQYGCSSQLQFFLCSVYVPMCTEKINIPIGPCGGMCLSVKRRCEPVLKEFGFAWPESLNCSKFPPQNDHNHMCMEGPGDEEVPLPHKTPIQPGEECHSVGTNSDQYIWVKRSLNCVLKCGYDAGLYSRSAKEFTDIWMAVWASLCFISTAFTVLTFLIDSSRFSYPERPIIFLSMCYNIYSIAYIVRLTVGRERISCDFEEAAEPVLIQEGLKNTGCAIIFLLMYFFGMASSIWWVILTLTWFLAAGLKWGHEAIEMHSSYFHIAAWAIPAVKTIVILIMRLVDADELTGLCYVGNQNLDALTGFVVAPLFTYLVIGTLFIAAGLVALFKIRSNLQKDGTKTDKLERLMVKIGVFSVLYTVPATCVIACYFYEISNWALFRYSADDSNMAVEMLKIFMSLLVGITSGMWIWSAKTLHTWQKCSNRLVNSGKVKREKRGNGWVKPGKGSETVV

B1: FZD4-CD86 chimeric protein (HiBiT-tagged) (receptor)
chain: FGDEEERRCDPIRISMCQNLGYNVTKMPNLVGHELQTDAELQLTTFTPLIQYGCSSQLQFFLCSVYVPMCTEKINIPIGPCGGMCLSVKRRCEPVLKEFGFAWPESLNCSKFPPQNDHNHMCMEGPGDEEVPLPHKTPIQPGEECHSVGTNSDQYIWVKRSLNCVLKCGYDAGLYS
B2: FZD4-FZD6 chimeric protein (receptor)
chain: FGDEEERRCDPIRISMCQNLGYNVTKMPNLVGHELQTDAELQLTTFTPLIQYGCSSQLQFFLCSVYVPMCTEKINIPIGPCGGMCLSVKRRCEPVLKEFGFAWPESLNCSKFPPQNDHNHMCMEGPGDEEVPLPHKTPIQPGEECHSVGTNSDQYIWVKRSLNCVLKCGYDAGLYSIGTVSIFCLCATLFTFLTFLIDVRRFRYPERPIIYYSVCYSIVSLMYFIGFLLGDSTACNKADEKLELGDTVVLGSQNKACTVLFMLLYFFTMAGTVWWVILTITWFLAAGRKWSCEAIEQKAVWFHAVAWGTPGFLTVMLLAMNKVEGDNISGVCFVGLYDLDASRYFVLLPLCLCVFVGLSLLLAGIISLNHVRQVIQHDGRNQEKLKKFMIRIGVFSGLYLVPLVTLLGCYVYEQVNRITWEITWVSDHCRQYHIPCPYQAKAKARPELALFMIKYLMTLIVGISAVFWVGSKKTCTEWAGFFKRNRKRDPISESRRVLQESCEFFLKHNSKVKHKKKHYKPSSHKLKVISKSMGTSTGATANHGTSAVAITSHDYLGQETLTEIQTSPETSMREVKADGASTPRLREQDCGEPASPAASISRLSGEQVDGKGQAGSVSESARSEGRISPKSDITDTGLAQSNNLQVPSSSEPSSLKGSTSLLVHPVSGVRKEQGGGCHSDT
B3: FZD4-FZD8 chimeric protein (receptor)
chain: FGDEEERRCDPIRISMCQNLGYNVTKMPNLVGHELQTDAELQLTTFTPLIQYGCSSQLQFFLCSVYVPMCTEKINIPIGPCGGMCLSVKRRCEPVLKEFGFAWPESLNCSKFPPQNDHNHMCMEGPGDEEVPLPHKTPIQPGEECHSVGTNSDQYIWVKRSLNCVLKCGYDAGLYSFTVFWIGLWSVLCFVSTFATVSTFLIDMERFKYPERPIIFLSACYLFVSVGYLVRLVAGHEKVACSGGAPGAGGAGGAGGAAAGAGAAGAGAGGPGGRGEYEELGAVEQHVRYETTGPALCTVVFLLVYFFGMASSIWWVILSLTWFLAAGMKWGNEAIAGYSQYFHLAAWLVPSVKSIAVLALSSVDGDPVAGICYVGNQSLDNLRGFVLAPLVIYLFIGTMFLLAGFVSLFRIRSVIKQQDGPTKTHKLEKLMIRLGLFTVLYTVPAAVVVACLFYEQHNRPRWEATHNCPCLRDLQPDQARRPDYAVFMLKYFMCLVVGITSGVWVWSGKTLESWRSLCTRCCWASKGAAVGGGAGATAAGGGGGPGGGGGGGPGGGGGPGGGGGSLYSDVSTGLTWRSGTASSVSYPKQMPLSQV
B4: FZD6-FZD4 chimeric protein (receptor)
chain: HSLFTCEPITVPRCMKMAYNMTFFPNLMGHYDQSIAAVEMEHFLPLANLECSPNIETFLCKAFVPTCIEQIHVVPPCRKLCEKVYSDCKKLIDTFGIRWPEELECDRLQYCDETVPVTFDPHTEFLGPQKKTEQVQRDIGFWCPRHLKTSGGQGYKFLGIDQCAPPCPNMYFKSDELEFAKSFMAVWASLCFISTAFTVLTFLIDSSRFSYPERPIIFLSMCYNIYSIAYIVRLTVGRERISCDFEEAAEPVLIQEGLKNTGCAIIFLLMYFFGMASSIWWVILTLTWFLAAGLKWGHEAIEMHSSYFHIAAWAIPAVKTIVILIMRLVDADELTGLCYVGNQNLDALTGFVVAPLFTYLVIGTLFIAAGLVALFKIRSNLQKDGTKTDKLERLMVKIGVFSVLYTVPATCVIACYFYEISNWALFRYSADDSNMAVEMLKIFMSLLVGITSGMWIWSAKTLHTWQKCSNRLVNSGKVKREKRGNGWVKPGKGSETVV
B5: FZD8-CD86 chimeric protein (HiBiT-tagged) (receptor)
chain: ASAKELACQEITVPLCKGIGYNYTYMPNQFNHDTQDEAGLEVHQFWPLVEIQCSPDLKFFLCSMYTPICLEDYKKPLPPCRSVCERAKAGCAPLMRQYGFAWPDRMRCDRLPEQGNPDTLCMDYNRTDLTTAAPSPPRRLPPPPPGEQPPSGSGHGRPPGARPPHRGGGRGGGGGDAAAPPARGGGGGGKARPPGGGAAPCEPGCQCRAPMVSVSSERHPLYNRVKTGQIANCALPCHNPFFSQDERA
B6: untagged human WNT-3A (ligand, UniProt P56704 19-352, looked up)
chain: SYPIWWSLAVGPQYSSLGSQPILCASIPGLVPKQLRFCRNYVEIMPSVAEGIKIGIQECQHQFRGRRWNCTTVHDSLAIFGPVLDKATRESAFVHAIASAGVAFAVTRSCAEGTAAICGCSSRHQGSPGKGWKWGGCSEDIEFGGMVSREFADARENRPDARSAMNRHNNEAGRQAIASHMHLKCKCHGLSGSCEVKTCWWSQPDFRAIGDFLKDKYDSASEMVVEKHRESRGWVETLRPRYTYFKVPTERDLVYYEASPNFCEPNPETGSFGTRDRTCNVSSHGIDGCDLLCCGRGHNARAERRREKCRCVFHWCCYVSCQECTRVYDVHTCK
notes: WNT-3A, human, untagged recombinant protein; source: bought: RnD Systems/Biotechne, purified
B7: untagged human/mouse WNT-5A (ligand, UniProt P41221 62-380, looked up)
chain: IIGAQPLCSQLAGLSQGQKKLCHLYQDHMQYIGEGAKTGIKECQYQFRHRRWNCSTVDNTSVFGRVMQIGSRETAFTYAVSAAGVVNAMSRACREGELSTCGCSRAARPKDLPRDWLWGGCGDNIDYGYRFAKEFVDARERERIHAKGSYESARILMNLHNNEAGRRTVYNLADVACKCHGVSGSCSLKTCWLQLADFRKVGDALKEKYDSAAAMRLNSRGKLVQVNSRFNSPTTQDLVYIDPSPDYCVRNESTGSLGTQGRLCNKTSEGMDGCELMCCGRGYDQFKTVQTERCHCKFHWCCYVKCKKCTEIVDQFVCK
notes: WNT-5A, printed as human/mouse, untagged recombinant protein; human WNT-5A is P41221; source: bought: RnD Systems/Biotechne, purified
B8: untagged human WNT-5B (ligand, UniProt Q9H1J7 18-359, looked up)
chain: QLLTDANSWWSLALNPVQRPEMFIIGAQPVCSQLPGLSPGQRKLCQLYQEHMAYIGEGAKTGIKECQHQFRQRRWNCSTADNASVFGRVMQIGSRETAFTHAVSAAGVVNAISRACREGELSTCGCSRTARPKDLPRDWLWGGCGDNVEYGYRFAKEFVDAREREKNFAKGSEEQGRVLMNLQNNEAGRRAVYKMADVACKCHGVSGSCSLKTCWLQLAEFRKVGDRLKEKYDSAAAMRVTRKGRLELVNSRFTQPTPEDLVYVDPSPDYCLRNESTGSLGTQGRLCNKTSEGMDGCELMCCGRGYNQFKSVQVERCHCKFHWCCFVRCKKCTEIVDQYICK
notes: WNT-5B, human, untagged recombinant protein; source: bought: RnD Systems/Biotechne, purified
B9: untagged human WNT-10B (ligand)
chain: not shown
notes: WNT-10B, human, untagged recombinant protein; source: bought: RnD Systems/Biotechne, purified
B10: untagged human WNT-11 (ligand, UniProt O96014 25-354, looked up)
chain: IKWLALSKTPSALALNQTQHCKQLEGLVSAQVQLCRSNLELMHTVVHAAREVMKACRRAFADMRWNCSSIELAPNYLLDLERGTRESAFVYALSAAAISHAIARACTSGDLPGCSCGPVPGEPPGPGNRWGGCADNLSYGLLMGAKFSDAPMKVKKTGSQANKLMRLHNSEVGRQALRASLEMKCKCHGVSGSCSIRTCWKGLQELQDVAADLKTRYLSATKVVHRPMGTRKHLVPKDLDIRPVKDSELVYLQSSPDFCMKNEKVGSHGTQDRQCNKTSNGSDSCDLMCCGRGYNPYTDRVVERCHCKYHWCCYVTCRRCERTVERYVCK
notes: WNT-11, human, untagged recombinant protein; source: bought: RnD Systems/Biotechne, purified

Each binder was assayed against T2, eGFP-tagged mouse WNT-3A (mouse, UniProt P27467 19-352) (assay: FRET or BRET; NanoBiT/BRET saturation binding on live HEK293A cells (setup 1): eGFP-WNT-3A conditioned medium 16.7 pM to 16.7 nM, 5% FBS, 10 mM HEPES, 240 min at 37 °C, then LgBiT and furimazine for 10 min; one-site specific model (normalised logarithmic fits for pKd)). Settings: partners not purified.
T2 construct: WNT-3A, mouse, eGFP-tagged, secreted into conditioned medium; Co-expressed with His-Afamin, which may accompany the WNT in the medium; Two batches (16.7 nM and 16.2 nM); also called eGFP-WNT-3A; eGFP-Wnt-3A; source: HEK293F suspension cells, cotransfected with pCS2+-eGFP-WNT-3A and pCMV-His-Afamin; conditioned medium, concentrated 5-fold and medium-exchanged (not purified)

**Q.** B1 was tested. Which Kd did it give?
**A.** 142 nM

**Q.** How did the Kd turn out when B2 was run?
**A.** 3.5 nM

**Q.** How did the Kd turn out when B3 was run?
**A.** 2.9 nM

**Q.** How did the Kd turn out when B4 was run?
**A.** 5.8 nM

**Q.** B5 was tested. Which Kd did it give?
**A.** 22.9 nM

Each binder was assayed against T1, HiBiT-tagged human FZD4 (assay: FRET or BRET; NanoBiT/BRET competition binding on live HEK293A cells with HiBiT-FZD4: 30 min preincubation with purified untagged WNT at 37 °C, then eGFP-WNT-3A to 0.4 nM for 240 min, then LgBiT and furimazine; pKi by Cheng-Prusoff). Settings: one partner purified.

**Q.** For B6, which “0.4 nM eGFP-WNT-3A binding displaced (%)” value is on record?
**A.** 40.8%

**Q.** And the pKi?
**A.** 7.26

**Q.** What about the ΔBRET of the same binder?
**A.** -0.002

**Q.** What does the source list for B7?
**A.** 0.4 nM eGFP-WNT-3A binding displaced (%): 78.4%; pKi: 7.08; ΔBRET: -0.004

**Q.** For B8, which “0.4 nM eGFP-WNT-3A binding displaced (%)” value is on record?
**A.** 78.3%

**Q.** And the pKi?
**A.** 6.93

**Q.** What about the ΔBRET of the same binder?
**A.** -0.004

**Q.** What does the source list for B9?
**A.** 0.4 nM eGFP-WNT-3A binding displaced (%): 34.5%; pKi: 7.87; ΔBRET: -0.001

**Q.** B10 was tested. Which “0.4 nM eGFP-WNT-3A binding displaced (%)” value did it give?
**A.** 58.4%

**Q.** What about the pKi of the same binder?
**A.** 8.9

**Q.** And the ΔBRET?
**A.** -0.001
